{
  "source": "patent US9617572B2",
  "about": "“Methods of producing 7-carbon chemicals via aromatic compounds” (INVISTA North America S.á r.l., priority 2012, dated 2017)",
  "molecules": {"B1": {"name": "SEQ ID NO 10: Pseudomonas syringae ω-transaminase, Genbank Accession No. AAY39893.1 (protein, listed as Pseudomonas syringae)", "chain": "MSANNPQTLEWQALSSEHHLAPFSDYKQLKEKGPRIITRAEGVYLWDSEGNKILDGMSGLWCVAIGYGREELADAASKQMRELPYYNLFFQTAHPPVLELAKAISDIAPEGMNHVFFTGSGSEGNDTMLRMVRHYWALKGQPNKKTIISRVNGYHGSTVAGASLGGMTYMHEQGDLPIPGVVHIPQPYWFGEGGDMTPDEFGIWAAEQLEKKILELGVENVGAFIAEPIQGAGGVIVPPDSYWPKIKEILSRYDILFAADEVICGFGRTSEWFGSDFYGLRPDMMTIAKGLTSGYVPMGGLIVRDEIVAVLNEGGDFNHGFTYSGHPVAAAVALENIRILREEKIVERVRSETAPYLQKRLRELSDHPLVGEVRGVGLLGAIELVKDKTTRERYTDKGAGMICRTFCFDNGLIMRAVGDTMIIAPPLVISFAQIDELVEKARTCLDLTLAVLQG"}, "B2": {"name": "SEQ ID NO 8: Chromobacterium violaceum ω-transaminase, Genbank Accession No. AAQ59697.1 (protein, listed as Chromobacterium violaceum)", "chain": "MQKQRTTSQWRELDAAHHLHPFTDTASLNQAGARVMTRGEGVYLWDSEGNKIIDGMAGLWCVNVGYGRKDFAEAARRQMEELPFYNTFFKTTHPAVVELSSLLAEVTPAGFDRVFYTNSGSESVDTMIRMVRRYWDVQGKPEKKTLIGRWNGYHGSTIGGASLGGMKYMHEQGDLPIPGMAHIEQPWWYKHGKDMTPDEFGVVAARWLEEKILEIGADKVAAFVGEPIQGAGGVIVPPATYWPEIERICRKYDVLLVADEVICGFGRTGEWFGHQHFGFQPDLFTAAKGLSSGYLPIGAVFVGKRVAEGLIAGGDFNHGFTYSGHPVCAAVAHANVAALRDEGIVQRVKDDIGPYMQKRWRETFSRFEHVDDVRGVGMVQAFTLVKNKAKRELFPDFGEIGTLCRDIFFRNNLIMRACGDHIVSAPPLVMTRAEVDEMLAVAERCLEEFEQTLKARGLA"}, "B3": {"name": "SEQ ID NO 13: Vibrio fluvialis ω-transaminase, Genbank Accession No. AEA39183.1 (protein, listed as Vibrio fluvialis)", "chain": "MNKPQSWEARAETYSLYGFTDMPSLHQRGTVVVTHGEGPYIVDVNGRRYLDANSGLWNMVAGFDHKGLIDAAKAQYERFPGYHAFFGRMSDQTVMLSEKLVEVSPFDSGRVFYTNSGSEANDTMVKMLWFLHAAEGKPQKRKILTRWNAYHGVTAVSASMTGKPYNSVFGLPLPGFVHLTCPHYWRYGEEGETEEQFVARLARELEETIQREGADTIAGFFAEPVMGAGGVIPPAKGYFQAILPILRKYDIPVISDEVICGFGRTGNTWGCVTYDFTPDAIISSKNLTAGFFPMGAVILGPELSKRLETAIEAIEEFPHGFTASGHPVGCAIALKAIDVVMNEGLAENVRRLAPRFEERLKHIAERPNIGEYRGIGFMWALEAVKDKASKTPFDGNLSVSERIANTCTDLGLICRPLGQSVVLCPPFILTEAQMDEMFDKLEKALDKVFAEVA"}},
  "assay_type_in_all_cases": "biochemical",
  "key": {"[1]": {"assay": "ω-Transaminase activity assay (7-aminoheptanol to 7-oxoheptanol)", "conditions": "for acceptance of 7-aminoheptanol as substrate (formation of L-alanine, RP-HPLC): cell free extract, 10 mM 7-aminoheptanol, 10 mM pyruvate, pH 7.5, 25° C., 4 h, against empty vector control; for acceptance of 7-oxoheptanol as substrate forming 7-aminoheptanol: concluded from reversibility of the ω-transaminase activity (Example 2)", "description": "A nucleotide sequence encoding an N-terminal His-tag was added to the Chromobacterium violaceum, Pseudomonas syringae and Rhodobacter sphaeroides genes encoding the ω-transaminases of SEQ ID NOs: 8, 10 and 11, respectively (see FIGS. 7F and 7G) such that N-terminal HIS tagged ω-transaminases could be produced. The modified genes were cloned into a pET21a expression vector under the T7 promoter. Each expression vector was transformed into a BL21[DE3] E. coli host. Each resulting recombinant E. coli strain were cultivated at 37° C. in a 250 mL shake flask culture containing 50 mL LB media and antibiotic selection pressure, with shaking at 230 rpm. Each culture was induced overnight at 16° C. using 1 mM IPTG.\n(§1) The pellet from each induced shake flask culture was harvested via centrifugation. Each pellet was resuspended and lysed via sonication. The cell debris was separated from the supernatant via centrifugation and the cell free extract was used immediately in enzyme activity assays.\nEnzyme activity assays in the reverse direction (i.e., 7-aminoheptanol to 7-oxoheptanol) were performed in a buffer composed of a final concentration of 50 mM HEPES buffer (pH=7.5), 10 mM 7-aminoheptanol, 10 mM pyruvate, and 100 μM pyridoxyl 5′ phosphate. Each enzyme activity assay reaction was initiated by adding cell free extract of the ω-transaminase gene product or the empty vector control to the assay buffer containing the 7-aminoheptanol and then incubated at 25° C. for 4 h, with shaking at 250 rpm. The formation of L-alanine was quantified via RP-HPLC."}, "[2]": {"assay": "ω-Transaminase activity assay, forward direction (pimelate semialdehyde to 7-aminoheptanoate)", "conditions": "for acceptance of pimelate semialdehyde as substrate (formation of pyruvate from L-alanine, RP-HPLC): cell free extract, 10 mM pimelate semialdehyde, 10 mM L-alanine, pH 7.5, 25° C., 4 h, against empty vector control; for reversibility of ω-transaminase activity: accepts pimelate semialdehyde and synthesizes 7-aminoheptanoate: conclusion from reverse and forward direction assays", "description": "(§2) A sequence encoding an N-terminal His-tag was added to the genes from Chromobacterium violaceum, Pseudomonas syringae, Rhodobacter sphaeroides, and Vibrio Fluvialis encoding the ω-transaminases of SEQ ID NOs: 8, 10, 11 and 13, respectively (see FIGS. 7F and 7G) such that N-terminal HIS tagged ω-transaminases could be produced. Each of the resulting modified genes was cloned into a pET21a expression vector under control of the T7 promoter and each expression vector was transformed into a BL21[DE3] E. coli host. The resulting recombinant E. coli strains were cultivated at 37° C. in a 250 mL shake flask culture containing 50 mL LB media and antibiotic selection pressure, with shaking at 230 rpm. Each culture was induced overnight at 16° C. using 1 mM IPTG.\nas §1\nEnzyme activity in the forward direction (i.e., pimelate semialdehyde to 7-aminoheptanoate) was confirmed for the transaminases of SEQ ID NO 10, SEQ ID NO 11 and SEQ ID NO 13. Enzyme activity assays were performed in a buffer composed of a final concentration of 50 mM HEPES buffer (pH=7.5), 10 mM pimelate semialdehyde, 10 mM L-alanine and 100 μM pyridoxyl 5′ phosphate. Each enzyme activity assay reaction was initiated by adding a cell free extract of the ω-transaminase gene product or the empty vector control to the assay buffer containing the pimelate semialdehyde and incubated at 25° C. for 4 h, with shaking at 250 rpm. The formation of pyruvate was quantified via RP-HPLC."}, "[3]": {"assay": "ω-Transaminase activity assay, reverse direction (7-aminoheptanoate to pimelate semialdehyde)", "conditions": "cell free extract, 10 mM 7-aminoheptanoate, 10 mM pyruvate, pH 7.5, 25° C., 4 h, against empty vector control", "description": "as §2, §1\nEnzyme activity assays in the reverse direction (i.e., 7-aminoheptanoate to pimelate semialdehyde) were performed in a buffer composed of a final concentration of 50 mM HEPES buffer (pH =7.5), 10 mM 7-aminoheptanoate, 10 mM pyruvate and 100 μM pyridoxyl 5′ phosphate. Each enzyme activity assay reaction was initiated by adding cell free extract of the ω-transaminase gene product or the empty vector control to the assay buffer containing the 7-aminoheptanoate and incubated at 25° C. for 4 h, with shaking at 250 rpm. The formation of L-alanine from pyruvate was quantified via RP-HPLC."}},
  "data": [
    {"molecule": "SEQ ID NO 11: Rhodobacter sphaeroides ω-transaminase, Genbank Accession No. ABA81135.1", "values": [
      {"measurement": "acceptance of 7-aminoheptanol as substrate (formation of L-alanine, RP-HPLC)", "setting": "[1]", "result": "accepted 7-aminoheptanol as substrate"},
      {"measurement": "acceptance of 7-oxoheptanol as substrate forming 7-aminoheptanol", "setting": "[1]", "result": "accept 7-oxoheptanol as substrate and form 7-aminoheptanol"},
      {"measurement": "acceptance of pimelate semialdehyde as substrate (formation of pyruvate from L-alanine, RP-HPLC)", "setting": "[2]", "result": "accepted pimelate semialdehyde as substrate"},
      {"measurement": "reversibility of ω-transaminase activity: accepts pimelate semialdehyde and synthesizes 7-aminoheptanoate", "setting": "[2]", "result": "accepted pimelate semialdehyde as substrate and synthesized 7-aminoheptanoate"},
      {"measurement": "acceptance of 7-aminoheptanoate as substrate (formation of L-alanine from pyruvate, RP-HPLC)", "setting": "[3]", "result": "accepted 7-aminoheptanote as substrate"}
    ]},
    {"molecule": "B1", "values": [
      {"measurement": "acceptance of 7-aminoheptanol as substrate (formation of L-alanine, RP-HPLC)", "setting": "[1]", "result": "accepted 7-aminoheptanol as substrate"},
      {"measurement": "acceptance of 7-oxoheptanol as substrate forming 7-aminoheptanol", "setting": "[1]", "result": "accept 7-oxoheptanol as substrate and form 7-aminoheptanol"},
      {"measurement": "acceptance of pimelate semialdehyde as substrate (formation of pyruvate from L-alanine, RP-HPLC)", "setting": "[2]", "result": "accepted pimelate semialdehyde as substrate"},
      {"measurement": "reversibility of ω-transaminase activity: accepts pimelate semialdehyde and synthesizes 7-aminoheptanoate", "setting": "[2]", "result": "accepted pimelate semialdehyde as substrate and synthesized 7-aminoheptanoate"},
      {"measurement": "acceptance of 7-aminoheptanoate as substrate (formation of L-alanine from pyruvate, RP-HPLC)", "setting": "[3]", "result": "accepted 7-aminoheptanote as substrate"}
    ]},
    {"molecule": "B2", "values": [
      {"measurement": "acceptance of 7-aminoheptanol as substrate (formation of L-alanine, RP-HPLC)", "setting": "[1]", "result": "accepted 7-aminoheptanol as substrate"},
      {"measurement": "acceptance of 7-oxoheptanol as substrate forming 7-aminoheptanol", "setting": "[1]", "result": "accept 7-oxoheptanol as substrate and form 7-aminoheptanol"},
      {"measurement": "reversibility of ω-transaminase activity: accepts pimelate semialdehyde and synthesizes 7-aminoheptanoate", "setting": "[2]", "result": "accepted pimelate semialdehyde as substrate and synthesized 7-aminoheptanoate"},
      {"measurement": "acceptance of 7-aminoheptanoate as substrate (formation of L-alanine from pyruvate, RP-HPLC)", "setting": "[3]", "result": "accepted 7-aminoheptanote as substrate"}
    ]},
    {"molecule": "B3", "values": [
      {"measurement": "acceptance of pimelate semialdehyde as substrate (formation of pyruvate from L-alanine, RP-HPLC)", "setting": "[2]", "result": "accepted pimelate semialdehyde as substrate"},
      {"measurement": "reversibility of ω-transaminase activity: accepts pimelate semialdehyde and synthesizes 7-aminoheptanoate", "setting": "[2]", "result": "accepted pimelate semialdehyde as substrate and synthesized 7-aminoheptanoate"},
      {"measurement": "acceptance of 7-aminoheptanoate as substrate (formation of L-alanine from pyruvate, RP-HPLC)", "setting": "[3]", "result": "accepted 7-aminoheptanote as substrate"}
    ]}
  ]
}
